Experimental data published in paper PMC515366, “A Drosophila Pattern Recognition Receptor Contains a Peptidoglycan Docking Groove and Unusual L,D-Carboxypeptidase Activity” (PLoS Biology, 2004).

Substrate: CC(=O)N[C@H]1[C@H](O[C@H]2[C@H](O[C@H](C)C(=O)N[C@@H](C)C(=O)N[C@H](CCC(=O)N[C@@H](CCC[C@@H](N)C(=O)O)C(=O)N[C@H](C)C(=O)O)C(=O)O)[C@@H](NC(C)=O)[C@@H]3OC[C@H]2O3)O[C@H](CO)[C@@H](O)[C@@H]1O
Experiment: purified protein
Type: biochemical, Drosophila melanogaster
Conditions: 20 mM HEPES pH 7.4, 2.5 mM EDTA, 37 °C, substrate 10–500 μM, releases terminal D-Ala

B1: rPGRP-SA (recombinant Drosophila PGRP-SA) (Drosophila melanogaster) (protein)
chain: GKSRQRSPANCPTIKLKRQWGGKPSLGLHYQVRPIRYVVIHHTVTGECSGLLKCAEILQNMQAYHQNELDFNDISYNFLIGNDGIVYEGTGWGLRGAHTYGYNAIGTGIAFIGNFVDKLPSDAALQAAKDLLACGVQQGELSEDYALIAGSQVISTQSPGLTLYNEIQEWPHWLSNP
notes: full-length secreted protein, own signal peptide removed, 177 residues plus C-terminal 6xHis tag; baculovirus, Hi-5 insect cells; monomer by gel filtration
B1 showed a Km of 21.4 ± 1.8 µM and a kcat of 0.000133 ± 5.6e-06 s⁻¹.
